Data as given in PMC3714537 (Molecular cell, 2012).

Target: linear tetra-Ub (UniProt P0CG47 1-76; P0CG47 1-76; P0CG47 1-76; P0CG47 1-76)

B1: GFP-UBAN (EGFP fused to the CoZi domain of murine NEMO, amino acids 183-339) (domain or fragment, UniProt O88522 183-339, looked up)
chain: QLESEREVLQQQHSVQVDQLRMQNQSVEAALRMERQAASEEKRKLAQLQAAYHQLFQDYDSHIKSSKGMQLEDLRQQLQQAEEALVAKQELIDKLKEEAEQHKIVMETVPVLKAQADIYKADFQAERHAREKLVEKKEYLQEQLEQLQREFNKLKVG
Kd: 4.7 µM
